# Reference: paper PMC4148193, “Chromatin Insulator Factors Involved in Long-Range DNA Interactions and Their Role in the Folding of the Drosophila Genome” (PLoS Genetics, 2014)
# T1: Chromator (Drosophila, UniProt Q86BS3 1-926)
# T1 sequence: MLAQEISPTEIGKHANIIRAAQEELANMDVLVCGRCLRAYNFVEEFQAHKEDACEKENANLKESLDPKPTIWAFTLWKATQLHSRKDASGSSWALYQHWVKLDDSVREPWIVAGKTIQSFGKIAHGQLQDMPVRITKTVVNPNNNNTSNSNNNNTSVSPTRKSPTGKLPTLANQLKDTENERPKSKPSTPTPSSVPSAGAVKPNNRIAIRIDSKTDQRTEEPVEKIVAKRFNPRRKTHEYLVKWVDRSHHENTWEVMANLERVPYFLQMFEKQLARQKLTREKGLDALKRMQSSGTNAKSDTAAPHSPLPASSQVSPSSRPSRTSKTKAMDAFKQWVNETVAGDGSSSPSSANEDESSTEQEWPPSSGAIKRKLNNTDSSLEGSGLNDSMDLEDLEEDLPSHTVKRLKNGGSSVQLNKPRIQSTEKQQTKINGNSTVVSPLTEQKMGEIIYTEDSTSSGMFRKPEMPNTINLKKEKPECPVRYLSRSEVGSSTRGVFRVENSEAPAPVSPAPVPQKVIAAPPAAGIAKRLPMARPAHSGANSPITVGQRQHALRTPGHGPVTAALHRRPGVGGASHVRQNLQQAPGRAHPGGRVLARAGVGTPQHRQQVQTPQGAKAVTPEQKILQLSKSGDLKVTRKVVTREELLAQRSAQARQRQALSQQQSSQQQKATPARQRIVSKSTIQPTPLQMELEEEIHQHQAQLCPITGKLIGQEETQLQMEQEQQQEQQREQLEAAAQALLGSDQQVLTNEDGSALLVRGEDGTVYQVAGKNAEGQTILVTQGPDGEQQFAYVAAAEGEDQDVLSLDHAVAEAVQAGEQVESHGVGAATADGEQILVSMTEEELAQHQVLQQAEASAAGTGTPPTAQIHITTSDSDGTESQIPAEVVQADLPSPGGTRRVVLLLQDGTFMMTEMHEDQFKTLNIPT
# T2: CP190-BTB/POZ (Drosophila, UniProt Q24478 1-134)
# T2 sequence: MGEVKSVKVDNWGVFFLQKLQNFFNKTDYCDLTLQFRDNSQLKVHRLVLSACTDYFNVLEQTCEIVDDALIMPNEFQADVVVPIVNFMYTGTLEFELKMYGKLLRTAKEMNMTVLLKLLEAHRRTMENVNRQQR
# T3: Chromator-C (Drosophila, UniProt Q86BS3 601-926)
# T3 sequence: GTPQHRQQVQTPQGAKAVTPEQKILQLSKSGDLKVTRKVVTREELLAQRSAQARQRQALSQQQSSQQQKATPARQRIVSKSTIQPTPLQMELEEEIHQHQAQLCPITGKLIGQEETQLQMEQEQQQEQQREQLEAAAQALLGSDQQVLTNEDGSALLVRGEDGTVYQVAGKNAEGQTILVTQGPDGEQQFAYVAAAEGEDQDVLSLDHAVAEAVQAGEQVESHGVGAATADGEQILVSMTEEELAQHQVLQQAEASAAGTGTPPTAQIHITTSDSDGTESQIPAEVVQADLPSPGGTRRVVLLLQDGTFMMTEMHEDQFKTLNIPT
# Legend:
# [1] = biological target: T1, Chromator; experiment: fluorescence anisotropy; Hill n=2±0.2; 20 uM ZnSO4; FA/FCS: 30 mM Tris/HCl pH 7.5, 100 mM NaCl, 20 uM ZnSO4, 5 mM mercaptoethanol, 0.01 mg/ml BSA, 0.004% Tween20, 2.5 nM DNA; EMSA: 150 mM NaCl, 30 mM Tris/HCl pH; conditions: protein: recombinant; tags: N-term 6xHis; blunt
# [2] = biological target: T2, CP190-BTB/POZ; experiment: fluorescence anisotropy; FA/FCS: 30 mM Tris/HCl pH 7.5, 100 mM NaCl, 20 uM ZnSO4, 5 mM mercaptoethanol, 0.01 mg/ml BSA, 0.004% Tween20, 2.5 nM DNA; EMSA: 150 mM NaCl, 30 mM Tris/HCl pH; conditions: protein: recombinant; tags: His; chain copies: 2; blunt
# [3] = biological target: T3, Chromator-C; experiment: as above; conditions: protein: recombinant; tags: N-term 6xHis; blunt
# [4] = biological target: T1, Chromator; experiment: competition; unlabeled DNAS vs 2.5 nM Cy3B-DNAS, 638 nM Chromator; FA/FCS: 30 mM Tris/HCl pH 7.5, 100 mM NaCl, 20 uM ZnSO4, 5 mM mercaptoethanol, 0.01 mg/ml BSA, 0.004% Tween20, 2.5 nM DNA; EMSA: 150 mM NaCl, 30 mM Tris/HCl pH; conditions: protein: recombinant; tags: N-term 6xHis; blunt
binder,measurement,setting,value
DNAS (dsDNA) DNA 1: AGAAGTCAGCGCGATAGCATCGATATTTTCGTGACACGCTTGTCATCCGATAGGTAGT DNA 2: ACTACCTATCGGATGACAAGCGTGTCACGAAAATATCGATGCTATCGCGCTGACTTCT,Kd,[1],360 ± 30 nM
same,binding result,[2],no binding
same,binding result,[3],no binding
same,Ki,[4],514 ± 360 nM
